Reference: FireProtDB (doi:10.1021/bi00010a017)

Conditions: Saccharomyces cerevisiae (strain ATCC 204508 / S288c), pH 4.6, Thermal, CD, Unknown, reversible: yes

Cytochrome c isoform 1 L100A, P00044, sequence (P00044 whole entry L100A, canonical isoform): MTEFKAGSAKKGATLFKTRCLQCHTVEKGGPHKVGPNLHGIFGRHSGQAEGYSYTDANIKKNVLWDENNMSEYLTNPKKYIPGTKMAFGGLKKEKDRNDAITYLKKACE
Cytochrome c isoform 1 F16W, P00044, sequence (P00044 whole entry F16W, canonical isoform): as the sequence (P00044 whole entry L100A, canonical isoform) above, with F16W, A100L counted along it
Cytochrome c isoform 1 F16I, P00044, sequence (P00044 whole entry F16I, canonical isoform): as the sequence (P00044 whole entry L100A, canonical isoform) above, with F16I, A100L counted along it
Cytochrome c isoform 1 Y103F, P00044, sequence (P00044 whole entry Y103F, canonical isoform): as the sequence (P00044 whole entry L100A, canonical isoform) above, with A100L, Y103F counted along it
Cytochrome c isoform 1 L100I, P00044, sequence (P00044 whole entry L100I, canonical isoform): as the sequence (P00044 whole entry L100A, canonical isoform) above, with A100I counted along it
Cytochrome c isoform 1 wild type, P00044, sequence (P00044 whole entry, canonical isoform): as the sequence (P00044 whole entry L100A, canonical isoform) above, with A100L counted along it
Cytochrome c isoform 1 L100T, P00044, sequence (P00044 whole entry L100T, canonical isoform): as the sequence (P00044 whole entry L100A, canonical isoform) above, with A100T counted along it
Cytochrome c isoform 1 L100V, P00044, sequence (P00044 whole entry L100V, canonical isoform): as the sequence (P00044 whole entry L100A, canonical isoform) above, with A100V counted along it
Cytochrome c isoform 1 F16Y, P00044, sequence (P00044 whole entry F16Y, canonical isoform): as the sequence (P00044 whole entry L100A, canonical isoform) above, with F16Y, A100L counted along it
Cytochrome c isoform 1 L100A|Y103F, P00044 L100A Y103F, sequence (P00044 whole entry L100A/Y103F, canonical isoform): as the sequence (P00044 whole entry L100A, canonical isoform) above, with Y103F counted along it
Cytochrome c isoform 1 L100I|Y103F, P00044 L100I Y103F, sequence (P00044 whole entry L100I/Y103F, canonical isoform): as the sequence (P00044 whole entry L100A, canonical isoform) above, with A100I, Y103F counted along it
Cytochrome c isoform 1 Y103A, P00044, sequence (P00044 whole entry Y103A, canonical isoform): as the sequence (P00044 whole entry L100A, canonical isoform) above, with A100L, Y103A counted along it

Substance	Tm (structure 1YCC) [°C]	change of melting temperature, mutant - wild type (higher = more stable) (structure 1YCC) [°C]	heat capacity change of unfolding (structure 1YCC) [kcal/mol/K]	unfolding enthalpy (van 't Hoff) (structure 1YCC) [kcal/mol]	heat capacity change of unfolding (52.8 °C, structure 1YCC) [kcal/mol/K]	unfolding free energy (52.8 °C, structure 1YCC) [kcal/mol]	heat capacity change of unfolding (52.8 °C) [kcal/mol/K]	unfolding free energy (52.8 °C) [kcal/mol]	Tm [°C]	heat capacity change of unfolding [kcal/mol/K]	unfolding enthalpy (van 't Hoff) [kcal/mol]
Cytochrome c isoform 1 F16I, P00044	48.5	-4.3	1.57	79.9							
Cytochrome c isoform 1 F16W, P00044	47.6	-5.2	1.6	75.6							
Cytochrome c isoform 1 F16Y, P00044	50.9	-1.9	1.26	75.5							
Cytochrome c isoform 1 L100A, P00044	36.6	-16.2	1.94	52.6							
Cytochrome c isoform 1 L100A|Y103F, P00044 L100A Y103F	33.4	-19.4	1.78	53.7							
Cytochrome c isoform 1 L100I, P00044	54.1	1.3	1.81	87.2	1.81	0.33					
Cytochrome c isoform 1 L100I|Y103F, P00044 L100I Y103F	49.9	-2.9	1.76	79.9							
Cytochrome c isoform 1 L100T, P00044	38.9	-13.9	1.49	57.8							
Cytochrome c isoform 1 L100V, P00044	48.8	-4	1.54	81.6							
Cytochrome c isoform 1 Y103A, P00044	31.1	-21.7	1.77	49.2							
Cytochrome c isoform 1 Y103F, P00044	53.8	1	1.53	84.5	1.53	0.24					
Cytochrome c isoform 1 wild type, P00044							1.37	0	52.8	1.37	82.5
